One assay deals with T1, human GCGR (Homo sapiens, UniProt P47871).
T1 construct: expressed in transfected cells; grown under Geneticin and Hygromycin selection
Description: cAMP protocol, cells expressing human GCGR. Format: cell-based. To be noted: ratio of EC50 at human GCGR to EC50 at human GLP1R.

The next assay deals with human GLP-1 receptor (human, UniProt P43220 24-463). Description: cell-based or functional assay.
Another assay concerns the target human glucagon receptor (human, UniProt P47871 26-477). Description: cell-based or functional assay.

*1 amine or outer side, *2 acyl side, *3 side chain or, on linkers, in order; H or OH if unused. Where a SMILES comes first, the peptide text is derived from it. Where no end group is shown, it is not given here. Side-chain parts run from the residue outwards. [ ]: non-standard residue; d: D form. The star is where a group is joined. γGlu = O=C(O)[C@H](CCC(=O)[*:2])N[*:1]; Palmitoyl = CCCCCCCCCCCCCCCC(=O)*; Nle = CCCC[C@H](N)C(=O)O; Aib = CC(C)(N)C(=O)O

T1 sequence (P47871 26-477): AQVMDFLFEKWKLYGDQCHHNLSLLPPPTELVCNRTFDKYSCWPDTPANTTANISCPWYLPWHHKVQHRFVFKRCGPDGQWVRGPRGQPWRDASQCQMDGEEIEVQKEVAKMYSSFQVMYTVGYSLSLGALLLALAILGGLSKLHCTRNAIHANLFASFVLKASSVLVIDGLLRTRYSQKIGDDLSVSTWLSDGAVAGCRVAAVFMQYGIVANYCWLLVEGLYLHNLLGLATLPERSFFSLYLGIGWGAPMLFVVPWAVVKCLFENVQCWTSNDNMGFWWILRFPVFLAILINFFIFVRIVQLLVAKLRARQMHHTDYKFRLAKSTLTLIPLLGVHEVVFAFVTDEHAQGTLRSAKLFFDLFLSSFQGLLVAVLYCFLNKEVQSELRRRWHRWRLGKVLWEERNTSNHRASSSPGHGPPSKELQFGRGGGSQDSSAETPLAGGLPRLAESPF
human glucagon receptor, sequence (P47871 26-477): as above
Description for human GCGR: The cAMP protocol was as follows.
Peptides were dissolved in 100% DMSO and serially diluted to generate 11 point titrations. The peptide solutions were then transferred into 384-well assay plates (150 nL/well). Assay ready frozen cells expressing human GLP-1R or human GCGR were suspended in growth media consisting of DMEM/F12 medium (GIBCO), 10% FBS (GIBCO), lx P/S (GIBCO), 800 μg/mL Geneticin (GIBCO), and 300 μg/mL Hygromycin (Invitrogen). Cells were then diluted in assay buffer consisting of PBS (GIBCO), 7.5% BSA (Perkin Elmer), 100 μM RO 20-1724 (Sigma), and 20% human serum (MP Biomedical). The cell suspensions (15 μL) were then added to the assay plates containing the peptide solutions (30,000 cells/well for human GCGR; 20,000 cells/well for GLP1R). The cells were incubated for 1 hour at room temperature in the dark. Production of cAMP was determined using HitHunter™ cAMPXS kits (DiscoverX). ED buffer (20 μL) was then added to each well and the plates were incubated for 1 hour at room temperature in the dark. Subsequently, EA buffer (20 μL) was added to each well, and the plates were incubated for 1-18 hours at room temperature in the dark. Luminescence was measured using an EnVision Multilabel plate reader (Perkin Elmer). EC50 values were calculated using ADA data analyzer software.

As for `CCCCCCCCCCCCCCCC(=O)N[C@@H](CCC(=O)N[C@@H](CCC(=O)NCCCC[C@H](NC(=O)[C@H](CC(=O)O)NC(=O)[C@H](CO)NC(=O)[C@@H](NC(=O)[C@H](Cc1ccccc1)NC(=O)[C@@H](NC(=O)CNC(=O)[C@H](CCC(N)=O)NC(=O)[C@@H](CO)NC(=O)[C@@H](N)Cc1c[nH]cn1)[C@@H](C)O)[C@@H](C)O)C(=O)N[C@@H](CO)C(=O)N[C@@H](CCCCN)C(=O)N[C@@H](Cc1ccc(O)cc1)C(=O)N[C@@H](CC(C)C)C(=O)N[C@@H](CCC(=O)O)C(=O)N[C@@H](C)C(=O)N[C@@H](CCCNC(=N)N)C(=O)N[C@@H](C)C(=O)N[C@@H](C)C(=O)N[C@@H](CCC(N)=O)C(=O)N[C@@H](CC(=O)O)C(=O)N[C@@H](Cc1ccccc1)C(=O)N[C@H](C(=O)N[C@@H](CCC(N)=O)C(=O)N[C@@H](Cc1c[nH]c2ccccc12)C(=O)N[C@@H](CC(C)C)C(=O)N[C@@H](CC(C)C)C(=O)N[C@@H](CC(=O)O)C(=O)N[C@H](C(N)=O)[C@@H](C)O)C(C)C)C(=O)O)C(=O)O` [SEQ ID NO: 13], the “hGCGR/hGLP1R (hTone)” value on human GCGR was found to be 0.90. Same read-out and setting: with `CCCCCCCCCCCCCCCC(=O)N[C@@H](CCC(=O)N[C@@H](CCC(=O)NCCCC[C@H](NC(=O)[C@H](CC(=O)O)NC(=O)[C@H](CO)NC(=O)[C@@H](NC(=O)[C@H](Cc1ccccc1)NC(=O)[C@@H](NC(=O)CNC(=O)[C@H](CCC(N)=O)NC(=O)[C@@H](CO)NC(=O)[C@@H](N)Cc1c[nH]cn1)[C@@H](C)O)[C@@H](C)O)C(=O)N[C@@H](CO)C(=O)N[C@@H](CC(C)C)C(=O)N[C@@H](Cc1ccc(O)cc1)C(=O)N[C@@H](CC(C)C)C(=O)N[C@@H](CC(=O)O)C(=O)N[C@@H](CCC(=O)O)C(=O)N[C@@H](CCCNC(=N)N)C(=O)N[C@@H](C)C(=O)N[C@@H](C)C(=O)N[C@@H](CCC(N)=O)C(=O)N[C@@H](CC(=O)O)C(=O)N[C@@H](Cc1ccccc1)C(=O)N[C@H](C(=O)N[C@@H](CCC(N)=O)C(=O)N[C@@H](Cc1c[nH]c2ccccc12)C(=O)N[C@@H](CC(C)C)C(=O)N[C@@H](CC(C)C)C(=O)N[C@@H](CC(=O)O)C(=O)N[C@H](C(N)=O)[C@@H](C)O)C(C)C)C(=O)O)C(=O)O` [SEQ ID NO: 16] (H-H[dS]QGTFTSDK([γGlu-γGlu-Palmitoyl])SLYLDERAAQDFVQWLLDT-NH2) the figure was 0.91. On the same count and under the same terms, the figure for `CCCCCCCCCCCCCCCC(=O)N[C@@H](CCC(=O)N[C@@H](CCC(=O)NCCCC[C@H](NC(=O)[C@H](CC(=O)O)NC(=O)[C@H](CO)NC(=O)[C@@H](NC(=O)[C@H](Cc1ccccc1)NC(=O)[C@@H](NC(=O)CNC(=O)[C@H](CCC(N)=O)NC(=O)C1(NC(=O)[C@@H](N)Cc2c[nH]cn2)CCC1)[C@@H](C)O)[C@@H](C)O)C(=O)N[C@@H](CO)C(=O)N[C@@H](CCCCN)C(=O)N[C@@H](Cc1ccc(O)cc1)C(=O)N[C@@H](CC(C)C)C(=O)N[C@@H](CC(=O)O)C(=O)N[C@@H](CCC(=O)O)C(=O)N[C@@H](CCCNC(=N)N)C(=O)N[C@@H](C)C(=O)N[C@@H](C)C(=O)N[C@@H](CCC(N)=O)C(=O)N[C@@H](CC(=O)O)C(=O)N[C@@H](Cc1ccccc1)C(=O)N[C@H](C(=O)N[C@@H](CCC(N)=O)C(=O)N[C@@H](Cc1c[nH]c2ccccc12)C(=O)N[C@@H](CC(C)C)C(=O)N[C@@H](CC(C)C)C(=O)N[C@@H](CC(=O)O)C(=O)N[C@H](C(N)=O)[C@@H](C)O)C(C)C)C(=O)O)C(=O)O` [SEQ ID NO: 18] is 1.25. As for HXQGTFTSDKSKYLDERAAQDFVQWLLDT (D-Ser at 2; Lys 10 conjugated to γEγE-C16 (palmitoyl); C-terminal amide) [Comparator Co-agonist Peptide 6], the “GLPR1 EC50 (nM) human; cAMP production (HitHunter cAMPXS), 20% human serum” value (“GLPR1 EC50 (nM) human … 20% human serum” below) with human GLP-1 receptor amounted to 0.007 nM. Also, in the assay with human glucagon receptor, the “GCGR EC50 (nM) human; cAMP production (HitHunter cAMPXS), 20% human serum” value (“GCGR EC50 (nM) human … 20% human serum” for short) was 0.009 nM and the “hGCGR/hGLP1R (hTone): ratio of cAMP EC50 at human GCGR to cAMP EC50 at human GLP1R” value (“hGCGR/hGLP1R (hTone): ratio of cAMP EC50” for short) is 1.3 ratio.

B1: Co-agonist Peptide 5 (peptide)
peptide: H[dS]QGTFTSDK([γGlu-γGlu-Palmitoyl])SKYLDARAAQDFVQWLLDT-NH2
modifications: N-terminus assumed
SMILES: CCCCCCCCCCCCCCCC(=O)N[C@@H](CCC(=O)N[C@@H](CCC(=O)NCCCC[C@H](NC(=O)[C@H](CC(=O)O)NC(=O)[C@H](CO)NC(=O)[C@@H](NC(=O)[C@H](Cc1ccccc1)NC(=O)[C@@H](NC(=O)CNC(=O)[C@H](CCC(N)=O)NC(=O)[C@@H](CO)NC(=O)[C@@H](N)Cc1c[nH]cn1)[C@@H](C)O)[C@@H](C)O)C(=O)N[C@@H](CO)C(=O)N[C@@H](CCCCN)C(=O)N[C@@H](Cc1ccc(O)cc1)C(=O)N[C@@H](CC(C)C)C(=O)N[C@@H](CC(=O)O)C(=O)N[C@@H](C)C(=O)N[C@@H](CCCNC(=N)N)C(=O)N[C@@H](C)C(=O)N[C@@H](C)C(=O)N[C@@H](CCC(N)=O)C(=O)N[C@@H](CC(=O)O)C(=O)N[C@@H](Cc1ccccc1)C(=O)N[C@H](C(=O)N[C@@H](CCC(N)=O)C(=O)N[C@@H](Cc1c[nH]c2ccccc12)C(=O)N[C@@H](CC(C)C)C(=O)N[C@@H](CC(C)C)C(=O)N[C@@H](CC(=O)O)C(=O)N[C@H](C(N)=O)[C@@H](C)O)C(C)C)C(=O)O)C(=O)O
For the molecule B1, in the assay with human GLP-1 receptor, the “GLPR1 EC50 (nM) human … 20% human serum” value was 0.033 nM. Moreover, in the assay with human glucagon receptor, the “GCGR EC50 (nM) human … 20% human serum” value worked out at 0.03 nM and the “hGCGR/hGLP1R (hTone): ratio of cAMP EC50” value was found to be 0.9 ratio.

B2: Co-agonist Peptide 1 (peptide)
peptide: H[dS]QGTFTSDK([γGlu-Palmitoyl])SKYLDARAAQDFVQWLLDT-NH2
modifications: N-terminus assumed
SMILES: CCCCCCCCCCCCCCCC(=O)N[C@@H](CCC(=O)NCCCC[C@H](NC(=O)[C@H](CC(=O)O)NC(=O)[C@H](CO)NC(=O)[C@@H](NC(=O)[C@H](Cc1ccccc1)NC(=O)[C@@H](NC(=O)CNC(=O)[C@H](CCC(N)=O)NC(=O)[C@@H](CO)NC(=O)[C@@H](N)Cc1c[nH]cn1)[C@@H](C)O)[C@@H](C)O)C(=O)N[C@@H](CO)C(=O)N[C@@H](CCCCN)C(=O)N[C@@H](Cc1ccc(O)cc1)C(=O)N[C@@H](CC(C)C)C(=O)N[C@@H](CC(=O)O)C(=O)N[C@@H](C)C(=O)N[C@@H](CCCNC(=N)N)C(=O)N[C@@H](C)C(=O)N[C@@H](C)C(=O)N[C@@H](CCC(N)=O)C(=O)N[C@@H](CC(=O)O)C(=O)N[C@@H](Cc1ccccc1)C(=O)N[C@H](C(=O)N[C@@H](CCC(N)=O)C(=O)N[C@@H](Cc1c[nH]c2ccccc12)C(=O)N[C@@H](CC(C)C)C(=O)N[C@@H](CC(C)C)C(=O)N[C@@H](CC(=O)O)C(=O)N[C@H](C(N)=O)[C@@H](C)O)C(C)C)C(=O)O
With B2, the “GLPR1 EC50 (nM) human … 20% human serum” value with human GLP-1 receptor was found to be 0.048 nM. Moreover, in the assay with human glucagon receptor, the “GCGR EC50 (nM) human … 20% human serum” value turned out to be 0.042 nM and the “hGCGR/hGLP1R (hTone): ratio of cAMP EC50” value worked out at 0.88 ratio.

B3: Co-agonist Peptide 4 (peptide)
peptide: H[Aib]VGTFTSDK([γGlu-γGlu-Palmitoyl])SKYLD[Aib]RAAQDFVQWL[Nle]DT-NH2
modifications: N-terminus assumed
SMILES: CCCCCCCCCCCCCCCC(=O)N[C@@H](CCC(=O)N[C@@H](CCC(=O)NCCCC[C@H](NC(=O)[C@H](CC(=O)O)NC(=O)[C@H](CO)NC(=O)[C@@H](NC(=O)[C@H](Cc1ccccc1)NC(=O)[C@@H](NC(=O)CNC(=O)[C@@H](NC(=O)C(C)(C)NC(=O)[C@@H](N)Cc1c[nH]cn1)C(C)C)[C@@H](C)O)[C@@H](C)O)C(=O)N[C@@H](CO)C(=O)N[C@@H](CCCCN)C(=O)N[C@@H](Cc1ccc(O)cc1)C(=O)N[C@@H](CC(C)C)C(=O)N[C@@H](CC(=O)O)C(=O)NC(C)(C)C(=O)N[C@@H](CCCNC(=N)N)C(=O)N[C@@H](C)C(=O)N[C@@H](C)C(=O)N[C@@H](CCC(N)=O)C(=O)N[C@@H](CC(=O)O)C(=O)N[C@@H](Cc1ccccc1)C(=O)N[C@H](C(=O)N[C@@H](CCC(N)=O)C(=O)N[C@@H](Cc1c[nH]c2ccccc12)C(=O)N[C@@H](CC(C)C)C(=O)N[C@@H](CCCC)C(=O)N[C@@H](CC(=O)O)C(=O)N[C@H](C(N)=O)[C@@H](C)O)C(C)C)C(=O)O)C(=O)O
For the molecule B3, the “hGCGR/hGLP1R (hTone): ratio of cAMP EC50” value in the assay with human glucagon receptor turned out to be 8.98 ratio.

B4: Co-agonist Peptide 14 (peptide)
peptide: HXQGTXTSDKSKYLDERAAQDFVQWLLDT
modifications: D-Ser at 2; threo-β-phenylserine (tβP) at 6; Lys 10 conjugated to γEγE-C16 (palmitoyl); C-terminal amide
Turning to B4, the “hGCGR/hGLP1R (hTone): ratio of cAMP EC50” value with human glucagon receptor was 1.02 ratio.

B5: Co-agonist Peptide 7 (peptide)
peptide: Ac-HAQGTFTSDK([γGlu-γGlu-Palmitoyl])SKYLDERAAQDFVQWLLDT-NH2
SMILES: CCCCCCCCCCCCCCCC(=O)N[C@@H](CCC(=O)N[C@@H](CCC(=O)NCCCC[C@H](NC(=O)[C@H](CC(=O)O)NC(=O)[C@H](CO)NC(=O)[C@@H](NC(=O)[C@H](Cc1ccccc1)NC(=O)[C@@H](NC(=O)CNC(=O)[C@H](CCC(N)=O)NC(=O)[C@H](C)NC(=O)[C@H](Cc1c[nH]cn1)NC(C)=O)[C@@H](C)O)[C@@H](C)O)C(=O)N[C@@H](CO)C(=O)N[C@@H](CCCCN)C(=O)N[C@@H](Cc1ccc(O)cc1)C(=O)N[C@@H](CC(C)C)C(=O)N[C@@H](CC(=O)O)C(=O)N[C@@H](CCC(=O)O)C(=O)N[C@@H](CCCNC(=N)N)C(=O)N[C@@H](C)C(=O)N[C@@H](C)C(=O)N[C@@H](CCC(N)=O)C(=O)N[C@@H](CC(=O)O)C(=O)N[C@@H](Cc1ccccc1)C(=O)N[C@H](C(=O)N[C@@H](CCC(N)=O)C(=O)N[C@@H](Cc1c[nH]c2ccccc12)C(=O)N[C@@H](CC(C)C)C(=O)N[C@@H](CC(C)C)C(=O)N[C@@H](CC(=O)O)C(=O)N[C@H](C(N)=O)[C@@H](C)O)C(C)C)C(=O)O)C(=O)O
B5: in the assay with human glucagon receptor, the “hGCGR/hGLP1R (hTone): ratio of cAMP EC50” value is 1 ratio. The same measure, in the same setting: with H[dS]QGTFTSDK([γGlu-γGlu-Palmitoyl])SKYLDVRRAQDFVQWLLDT-NH2 (not fully specified; printed as HsQGTFTSDK(γEγEC16)SKYLDVRRAQDFVQWLLDT-NH2) [Co-agonist Peptide 2] the figure was 0.3 ratio.

Values taken from patent publication US20160114000A1 (Merck Sharp & Dohme, published 2016).
